From the supplement of paper PMC10126150
± gives the standard deviation of the averaged measurements.

Test system: ATP
Experiment: switch fluorescence ratio, 500 uM ATP over buffer (Cy3 cluster intensity, sum of 5 cycles each) (fold (ratio)); higher = stronger signal-on switching upon ATP binding; sequences stand for … in TCGTCGGCAGCGTCAGATGTGTATAAGAGACAGTTTTTTTTTTTTTTTTTTTTTTTTT…TC
Details: aptamer strand: ATP DNA aptamer (quencher-CACCTGGGGGAGTATTGCGGAGGAAGG + anchor), 100 nM annealed; ATP concentration: 500 uM
Method in brief: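 Cy3-labelled switching-strand clusters on a modified Illumina MiSeq flow-cell were annealed to 100 nM quencher-labelled ATP aptamer, imaged in selection buffer, then imaged after 15 min with 500 uM ATP at 22 °C. Five buffer/ATP cycles ran, with NaOH stripping and re-annealing between them. The fluorescence ratio is summed target-cycle over summed buffer-cycle Cy3 intensity per cluster, averaged per switch-domain sequence. Clusters outside 100-1000 RFU were excluded.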
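Further: ATP exposure 15 min at 22 °C before imaging.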

Sequence	switch fluorescence ratio
AAAAAAACA	1.2 ± 0.11
AAAAAAATAG	1.03 ± 0.014
AAAAAACTAT	1.02 ± 0.018
AAAAAACTTT	1.05 ± 0.027
AAAAAAGCAG	1.024 ± 0.0014
AAAAAAGGAT	1.024 ± 0.0086
AAAAAAGTTT	1.02 ± 0.033
AAAAAATCGC	1.09 ± 0.16
AAAAAATTGT	0.999 ± 0.019
AAAAACAACT	1.024 ± 0.0076
AAAAACACTT	1.04 ± 0.022
AAAAACAGGG	1.16 ± 0.097
AAAAACCTCG	1.05 ± 0.013
AAAAACGCTT	1.01 ± 0.045
AAAAACGGTG	1.05 ± 0.084
AAAAACGTCT	1.1 ± 0.016
AAAAAGAATG	0.973 ± 0.03
AAAAAGATGA	0.9626 ± 0.0028
AAAAAGGGCG	0.989 ± 0.02
AAAAAGGGTA	0.988 ± 0.05
AAAAAGGGTG	1 ± 0.045
AAAAAGGTTC	0.991 ± 0.017
AAAAAGTCTC	0.9891 ± 0.0092
AAAAAGTGGG	0.992 ± 0.039
AAAAAGTTTT	0.985 ± 0.058

Sequence	switch fluorescence ratio
AAAAATAATT	0.983 ± 0.028
AAAAATCACT	1.04 ± 0.039
AAAAATCTCT	1.02 ± 0.033
AAAAATCTGC	1.03 ± 0.12
AAAAATGGCT	1.04 ± 0.091
AAAAATGTCA	0.979 ± 0.045
AAAAATTAAA	1.002 ± 0.0018
AAAAATTAAG	1.03 ± 0.029
AAAACATCGC	1.015 ± 0.0029
AAAACATTCG	1.16 ± 0.12
AAAACATTTT	1.03 ± 0.049
AAAACCAGCG	1.03 ± 0.047
AAAACCGGAT	1.11 ± 0.18
AAAACGAATT	1.01 ± 0.044
AAAACGAGTG	1.02 ± 0.023
AAAACGCAGG	1.02 ± 0.053
AAAACTTGAA	1.07 ± 0.086
AAAAGACCCG	1.07 ± 0.044
AAAAGAGCGC	1.08 ± 0.072
AAAAGCGATC	1.14 ± 0.038
AAAAGCGTGG	1 ± 0.019
AAAAGGAGAC	1.01 ± 0.028
AAAAGGATAG	0.954 ± 0.017
AAAAGGATGG	0.979 ± 0.021
AAAAGGCATA	1.03 ± 0.046

Sequence	switch fluorescence ratio
AAAAGGCCGG	1.05 ± 0.14
AAAAGGCGTG	1.01 ± 0.021
AAAAGGGAGT	0.972 ± 0.013
AAAAGGGGCG	1 ± 0.019
AAAAGGGTAG	1.01 ± 0.018
AAAAGGTCGT	0.999 ± 0.019
AAAAGGTGAA	1.04 ± 0.089
AAAAGGTGG	0.983 ± 0.011
AAAAGGTGTA	0.99 ± 0.0095
AAAAGGTTTT	1 ± 0.033
AAAAGTATGG	1 ± 0.015
AAAAGTGGGT	0.9942 ± 0.0081
AAAAGTGTAT	0.98 ± 0.03
AAAAGTTTGC	1.02 ± 0.056
AAAAGTTTTT	0.997 ± 0.025
AAAATAATCT	0.9793 ± 0.004
AAAATATGG	0.997 ± 0.031
AAAATATGTT	1 ± 0.023
AAAATCAGAG	0.97 ± 0.024
AAAATCGTCT	1.08 ± 0.086
AAAATGATAG	1.06 ± 0.072
AAAATGGCTT	0.988 ± 0.034
AAAATGGGCT	0.996 ± 0.038
AAAATGGTTG	1.04 ± 0.032
AAAATGTGAC	1.039 ± 0.007

Sequence	switch fluorescence ratio
AAAATGTTTC	1.02 ± 0.02
AAAATTGCAG	0.997 ± 0.012
AAAATTGTTG	0.988 ± 0.049
AAAATTTAAA	1 ± 0.051
AAAATTTCGC	1.01 ± 0.018
AAAATTTGGG	1.02 ± 0.025
AAACACGTTG	1.018 ± 0.0094
AAACCAGGTA	1.18 ± 0.048
AAACCCAAAG	1.02 ± 0.045
AAACCGGGCA	1.22 ± 0.22
AAACGAGGTC	1.01 ± 0.032
AAACGATTTA	1.018 ± 0.0055
AAACGCAGGG	1.03 ± 0.029
AAACGCGGAC	3.45 ± 0.49
AAACGCTGCT	1.02 ± 0.062
AAACGGACGG	1.24 ± 0.029
AAACGGCTAA	1.02 ± 0.039
AAACGGGGCG	0.9719 ± 0.0047
AAACGGGTAG	1.07 ± 0.1
AAACGTGGTG	1 ± 0.038
AAACTATAGA	1.01 ± 0.054
AAACTATGTG	1.02 ± 0.037
AAACTCATGA	0.983 ± 0.02
AAACTGACGG	1.37 ± 0.016
AAACTTAATG	1.05 ± 0.061

Sequence	switch fluorescence ratio
AAACTTTCTA	1.05 ± 0.05
AAACTTTTTT	0.9566 ± 0.0049
AAAGAAAAAT	1.002 ± 0.005
AAAGAAATTA	0.997 ± 0.042
AAAGAACCG	1.085 ± 0.0014
AAAGAACGCT	1.04 ± 0.015
AAAGAAGCTT	1.02 ± 0.041
AAAGAAGGGG	0.995 ± 0.015
AAAGAATTTT	1 ± 0.05
AAAGACACTC	1.04 ± 0.071
AAAGACAGTG	1.01 ± 0.058
AAAGACCCTG	0.988 ± 0.049
AAAGAGCGGG	1.02 ± 0.061
AAAGAGGCAA	1.03 ± 0.047
AAAGAGTGTT	0.9776 ± 0.0081
AAAGAGTTCA	1 ± 0.035
AAAGATAGGG	1.01 ± 0.018
AAAGATCGTG	0.974 ± 0.01
AAAGATTGTT	0.954 ± 0.011
AAAGCATAGG	1.03 ± 0.015
AAAGCCGAAT	0.99 ± 0.023
AAAGCCTTGG	0.973 ± 0.021
AAAGCGGTAT	1.038 ± 0.007
AAAGCGGTTG	0.98 ± 0.012
AAAGCTAGGA	0.979 ± 0.036

Sequence	switch fluorescence ratio
AAAGCTGCTT	0.987 ± 0.024
AAAGCTTGGA	1.03 ± 0.058
AAAGGAAAGT	1.01 ± 0.02
AAAGGACGGG	1.017 ± 0.0031
AAAGGAGCGT	0.992 ± 0.041
AAAGGAGGGG	0.983 ± 0.02
AAAGGATCGT	1.01 ± 0.02
AAAGGATTTG	0.97 ± 0.0034
AAAGGCCCGT	1 ± 0.0077
AAAGGCGCTG	0.984 ± 0.041
AAAGGGACGG	0.9829 ± 0.0091
AAAGGGAGGG	1 ± 0.02
AAAGGGCGGA	0.9884 ± 0.009
AAAGGGCGTG	0.985 ± 0.022
AAAGGGGACC	1.09 ± 0.053
AAAGGGGACG	1.01 ± 0.017
AAAGGGGGGT	0.989 ± 0.025
AAAGGGGTCG	1.07 ± 0.036
AAAGGGTCAG	0.996 ± 0.034
AAAGGGTCAT	0.9918 ± 0.0086
AAAGGGTTGG	1.02 ± 0.02
AAAGGTAATT	1.01 ± 0.015
AAAGGTATGG	0.961 ± 0.018
AAAGGTGCAC	0.968 ± 0.11
AAAGGTGCGG	0.9931 ± 0.0063

Sequence	switch fluorescence ratio
AAAGGTGGGT	1.51 ± 0.86
AAAGGTTGTT	1.013 ± 0.0037
AAAGTAGCCT	1.08 ± 0.057
AAAGTAGGTA	0.976 ± 0.011
AAAGTAGTAA	1.01 ± 0.037
AAAGTATATG	0.983 ± 0.029
AAAGTATTTG	1.01 ± 0.05
AAAGTATTTT	1.03 ± 0.067
AAAGTCGCGT	1 ± 0.032
AAAGTCTGGA	1.028 ± 0.01
AAAGTGCTAT	1.02 ± 0.048
AAAGTGCTCC	1.095 ± 0.0075
AAAGTGGCGT	0.984 ± 0.08
AAAGTGGTTG	0.984 ± 0.024
AAAGTGTGCT	1.01 ± 0.024
AAAGTGTTCC	1.03 ± 0.017
AAAGTGTTCG	0.9797 ± 0.0097
AAAGTTATGT	1 ± 0.045
AAAGTTGGTA	0.967 ± 0.055
AAAGTTGTCG	0.969 ± 0.051
AAAGTTTTCA	1.02 ± 0.028
AAAGTTTTGG	0.985 ± 0.026
AAAGTTTTGT	0.983 ± 0.023
AAATAAATTG	0.999 ± 0.044
AAATAAGTC	0.945 ± 0.024

Sequence	switch fluorescence ratio
AAATACGCAG	1.07 ± 0.1
AAATAGGGTG	1.13 ± 0.18
AAATATAAAC	1.03 ± 0.087
AAATATTGCG	0.997 ± 0.034
AAATCACGGA	1.44 ± 0.23
AAATCGCAGA	1 ± 0.025
AAATCGGATA	1.03 ± 0.003
AAATCGTACG	0.988 ± 0.048
AAATCTGGGT	0.97 ± 0.013
AAATCTGTAA	1.03 ± 0.06
AAATGAGCTT	0.986 ± 0.029
AAATGAGTGT	0.975 ± 0.026
AAATGCGTTA	1.01 ± 0.02
AAATGCGTTT	0.979 ± 0.019
AAATGGAGAC	1.01 ± 0.034
AAATGGAGGA	0.988 ± 0.032
AAATGGATAG	1.007 ± 0.0029
AAATGGATCG	1 ± 0.018
AAATGGCCAT	1.01 ± 0.013
AAATGGGGAA	1.004 ± 0.0069
AAATGGGTGG	0.997 ± 0.025
AAATGGTGTG	1.02 ± 0.019
AAATGGTTGT	1.01 ± 0.02
AAATGTTCTT	0.986 ± 0.031
AAATGTTGAT	1.03 ± 0.019
